The source of these data is a protein production outcome set (Wang et al. 2014).

The nature of this data set: label from the status in PepcDB records.
On to “MHYAFSRIRLRSFFGWMIIGVFLIMIPLDLTNVSENTMEVISQITVFFVFPLLWLYVKTNKNNVVFNSFFDKPGRLSWGLIVLATIMGMIFSVGISQIQFYILAHTLPNFLVTMLEDGNVINTSNVYMTIFTFISACVLAPIMEEVIFRGFFLQRMAYKWGIKKAVIISSIIFGLGHFDVIGAFMFGVVMCLLYIKTKNIWTNIAVHALNNLIATSMQFFGGEESGTISITELQAQSNLWIGIGLTVVGLLWLIPYVWKQWRTVKEVGVPPVRFINEQKVVSSSQENEVYSQVILTDRLMAIELPDEAVNKLRLEENDYVTVSVEEDKIVIKKAHNR”, for which the protein production entry is “failed”.

For “MHYPVLVNPRKPSLSRMPMKKPKRASAAKAKKGRKISASRSKPATKRPAKPPRRGASLDGTKDSAKIIRGLRSKLKAAERRVAELEAAADTDFLLEIPNRRGFERELTRAIAYMKRYRATGALIVLDVDRLKPINDSFGHAAGDEVLKAIVGALTRQVRASDVVGRLGGDEFALLLWNLNETDAKAKAAAFEQTIDELSFVFRSQNVTAGASAGVALLGAHSDAGRALEEADAAMYVRKARRRHEPRIRLVSN”, the protein production entry is on record as “failed”.

For the sequence “MIAKEFETFLLGQEETFLTPAKNLAVLIDTHNADHATLLLSQMTYTRVPVVTDEKQFVGTIGLRDIMAYQMEHDLSQEIMADTDIVHMTKTDVAVVSPDFTITEVLHKLVDESFLPVVDAEGIFQGIITRKSILKAVNALLHDFSKEYEIRCQ”, the protein production result is given as “not failed”.

As to “MIALLPAYLLWVVLSLLEYNRQAREQIQDDIFREREYASVALRGISDAVVSIDTEQVIQYLNPAAEALLGLPAAQLLQRRLKQVAPLHYEFSRQPVQDPIEQAIATQQVVHLAQNCYLKRHNGEKLLVEGAVAPLLGRNGQLIGSVLTFRDTAPIRRRMLAALEASESRLRQHELELARVTRINTMGEMASGIAHEINQPLSAIMSYCQAGLSLLEDDELDMAMLRRALTSSVSQADRAGRIIHRLREFVTQKNQQLAPVQLNQAVHNALSLLDYELHDHDIHIEQNFAPELPLVYADTIQLEQVVLNLARNAVEAMEPTRPWGRLSITTRRQGERVQLIISDNGCGIPPDKLDRIFDPFFSTKPNGMGLGLAICQTAVEAFGGKLIAGNKPGSGAEFIIDLPCAPRDMAVPSGVEA”, the protein production entry is “failed”.

As for “MIAMDIREIGLRLVGEAIKAADPYRAVLNAVKVSDDKIIVQGKEFEIKGKVYVIALGKAACEMARAIEDILDVEDGVAVTKYGYGKELKRIKVIEAGHPIPDEKSILGAKEALSILNRARENDIVFILISGGGSALFELPEEGISLEDLKLTTDLLLKSGAKIHEINTVRKHISKVKGGKLAKMIKGTGIVLIISDVVGDNLEAIASGPTVKDPTTFEDAKRILELYDIWEKVPESVRLHIERGLRGEVEETLKEDLPNVHNFLIASNSISCEAIAREAQRLGFKAYIMTTTLEGEAKDAGLFIGSIVQEIAERGRPFEPPVVLVFGGETTVTIEGKGGKGGPNQEIALSATRKISDLEALIVAFDTDGTDGPTDAAGGIVDGTTYKKLREKGIDVEKVLKEHNSYEALKKVGGLLFTGPTGTNVNSIVIAIVTSKRGRT”, the protein production entry is recorded as “not failed”.

As to “MIASVASTTKDRLEIVKAFRNKEITILIATSILERGVTFPNVDVFVINSEHPNFTKSALIQMAGRVGRSPERPTGLVSFFHYGKSKAMCQAVREIKKMNQLGCFSLEHHHHHH”, the protein production result is “failed”.

“MIAVISMSGHVWSQQVPLWSIIIRTIHLIGLTLWLGSLVYLICYAIKVKINQLTSVRRMLLKVNIIAVFMLVFTGILMAIDETNTLTLWNNVSAWSIYLVIKIAGIITMMLLGFYQTMRALRQRQQVHRFALMTELLIGMILIFAGIMMSK”: the protein production entry is reported as “failed”.

Consider “MIDDMAVPLTFTDAAANKVKSLISEEENTDLKLRVYITGGGCSGFQYGFTFDEKVNDGDLTIEKSGVQLVIDPMSLQYLIGGTVDYTEGLEGSRFTVNNPNATSTCGCGSSFSI”, for which the protein production entry is “not failed”.

Consider “MIDEPTGLYNRLRLQEDVSLRLQRDGALTVIAADLLPLALLNTIIRTLGYPFSNDLMLEARDRIRAELPDFTLYKISPTRFGLLLPRQQQEETESVCLRLLRAFESPVVCRGIPIKANVGLGVLPLADDTLDGDQDWLRLVVSAADDARDRGVGWARYNPPLDQAQQRLEHHHHHH”, for which the protein production entry is reported as “not failed”.
